Measurements reported in the Immune Epitope Database (IEDB).
pKd: −log10 of the molar value.

Experiments:
[1] = target: HLA-B*18:01; assay: IEDB peptide-MHC binding, purified MHC/competitive/radioactivity; filed as Kd, often an IC50 or EC50 that approximates it; ≥ and ≤ were set here for values at or beyond the usual limits of such assays
[2] = target: HLA-B*40:01; assay: as above
[3] = target: HLA-B*40:02; assay: as above
[4] = target: HLA-B*44:02; assay: as above
[5] = target: HLA-B*44:03; assay: as above
[6] = target: HLA-B*45:01; assay: as above
[7] = target: HLA-B*15:01; assay: IEDB peptide-MHC binding, purified MHC/competitive/fluorescence; filed as Kd, often an IC50 or EC50 that approximates it; ≥ and ≤ were set here for values at or beyond the usual limits of such assays; conditions: source organism: Paracoccus denitrificans PD1222
[8] = target: HLA-A*01:01; assay: IEDB peptide-MHC binding, purified MHC/competitive/radioactivity; filed as Kd, often an IC50 or EC50 that approximates it; ≥ and ≤ were set here for values at or beyond the usual limits of such assays
[9] = target: HLA-A*26:01; assay: as above
[10] = target: HLA-A*29:02; assay: as above
[11] = target: HLA-A*30:01; assay: as above
[12] = target: HLA-A*30:02; assay: as above
[13] = target: HLA-A*32:01; assay: as above
[14] = source organism: Mammarenavirus brazilense
[15] = source organism: SARS coronavirus Tor2
[16] = source organism: Mammarenavirus machupoense
[17] = source organism: Mammarenavirus whitewaterense
[18] = source organism: Mammarenavirus lassaense
[19] = source organism: Lymphocytic choriomeningitis virus (strain Armstrong)
[20] = source organism: Mammarenavirus guanaritoense

## AENDIVEAL
[1]; [14]
  pKd: 4.97
[2]; [14]
  pKd: 8.23
[3]; [14]
  pKd: 7.60
[4]; [14]
  pKd: 7.36
[5]; [14]
  pKd: 6.97
[6]; [14]
  pKd: 5.99

## AEWVLAYMLF
[1]; [15]
  pKd: 6.49
[2]; [15]
  pKd: 6.82
[3]; [15]
  pKd: 7.72
[4]; [15]
  pKd: 7.79
[5]; [15]
  pKd: 8.04
[6]; [15]
  pKd: 7.39

## ALAAAGAAY
[7]
  pKd: 6.91

## CEEMLDNRAT
[1]; [15]
  pKd: ≤ 4.34
[2]; [15]
  pKd: 4.74
[3]; [15]
  pKd: 5.07
[4]; [15]
  pKd: 6.25
[5]; [15]
  pKd: 4.99
[6]; [15]
  pKd: 6.86

## DESGLNISGY
[1]; [14]
  pKd: 6.70
[2]; [14]
  pKd: ≤ 4.16
[3]; [14]
  pKd: ≤ 4.15
[4]; [14]
  pKd: 4.89
[5]; [14]
  pKd: 5.11
[6]; [14]
  pKd: ≤ 4.15

## DESKKEINLL
[1]; [16]
  pKd: 5.54
[2]; [16]
  pKd: ≤ 4.16
[3]; [16]
  pKd: ≤ 4.15
[4]; [16]
  pKd: ≤ 4.15
[5]; [16]
  pKd: ≤ 4.15
[6]; [16]
  pKd: ≤ 4.15

## DLGLLYTAKY
[8]; [17]
  pKd: 4.86
[9]; [17]
  pKd: 6.00
[10]; [17]
  pKd: 6.41
[11]; [17]
  pKd: ≤ 4.23
[12]; [17]
  pKd: 7.43
[13]; [17]
  pKd: ≤ 4.16

## EEAIRHVRA
[1]; [15]
  pKd: ≤ 4.25
[2]; [15]
  pKd: 5.25
[3]; [15]
  pKd: 5.26
[4]; [15]
  pKd: 5.56
[5]; [15]
  pKd: 5.24
[6]; [15]
  pKd: 7.40

## EEPVALLPLS
[1]; [16]
  pKd: 4.81
[2]; [16]
  pKd: 5.29
[3]; [16]
  pKd: 5.36
[4]; [16]
  pKd: 5.07
[5]; [16]
  pKd: 5.53
[6]; [16]
  pKd: 6.10

## EEVVLKNGEL
[1]; [15]
  pKd: 6.42
[2]; [15]
  pKd: 8.20
[3]; [15]
  pKd: 7.86
[4]; [15]
  pKd: 7.33
[5]; [15]
  pKd: 7.83
[6]; [15]
  pKd: 5.88

## EWIFRALKY
[8]; [14]
  pKd: ≤ 4.43
[9]; [14]
  pKd: 5.15
[10]; [14]
  pKd: 6.74
[11]; [14]
  pKd: ≤ 4.42
[12]; [14]
  pKd: 5.11
[13]; [14]
  pKd: ≤ 4.11

## FEVLAVEDT
[1]; [15]
  pKd: 5.47
[2]; [15]
  pKd: 4.96
[3]; [15]
  pKd: 5.73
[4]; [15]
  pKd: ≤ 4.32
[5]; [15]
  pKd: 4.87
[6]; [15]
  pKd: 4.94

## GESVKTQFNY
[1]; [15]
  pKd: ≤ 4.70
[2]; [15]
  pKd: 4.94
[3]; [15]
  pKd: 6.31
[4]; [15]
  pKd: 6.32
[5]; [15]
  pKd: 6.53
[6]; [15]
  pKd: 5.12

## KEAYCQEFSL
[1]; [18]
  pKd: ≤ 4.43
[2]; [18]
  pKd: 7.05
[3]; [18]
  pKd: 8.01
[4]; [18]
  pKd: 5.38
[5]; [18]
  pKd: 4.79
[6]; [18]
  pKd: 5.24

## LDVLCLSSL
[1]; [19]
  pKd: ≤ 4.64
[2]; [19]
  pKd: 5.21
[3]; [19]
  pKd: 7.36
[4]; [19]
  pKd: 5.11
[5]; [19]
  pKd: 5.12
[6]; [19]
  pKd: 5.09

## METDFLELAM
[1]; [15]
  pKd: 7.42
[2]; [15]
  pKd: 7.81
[3]; [15]
  pKd: 6.54
[4]; [15]
  pKd: 7.61
[5]; [15]
  pKd: 7.96
[6]; [15]
  pKd: 6.91

## MLDDLTMGY
[8]; [20]
  pKd: 8.95
[9]; [20]
  pKd: 5.14
[10]; [20]
  pKd: 6.90
[11]; [20]
  pKd: 4.89
[12]; [20]
  pKd: 6.65
[13]; [20]
  pKd: 5.67

## PDTTYLGPL
[1]; [19]
  pKd: ≤ 4.12
[2]; [19]
  pKd: ≤ 4.12
[3]; [19]
  pKd: ≤ 4.11
[4]; [19]
  pKd: ≤ 4.11
[5]; [19]
  pKd: ≤ 4.11
[6]; [19]
  pKd: ≤ 4.66

## QELLIQQWI
[1]; [15]
  pKd: 5.06
[2]; [15]
  pKd: 6.73
[3]; [15]
  pKd: 7.21
[4]; [15]
  pKd: 7.04
[5]; [15]
  pKd: 4.87
[6]; [15]
  pKd: 6.50

## REAVESCPLM
[1]; [19]
  pKd: 5.52
[2]; [19]
  pKd: 6.98
[3]; [19]
  pKd: 8.01
[4]; [19]
  pKd: 6.28
[5]; [19]
  pKd: 5.66
[6]; [19]
  pKd: 5.09

## REGVFVFNG
[1]; [15]
  pKd: ≤ 4.41
[2]; [15]
  pKd: 5.81
[3]; [15]
  pKd: 6.65
[4]; [15]
  pKd: 5.32
[5]; [15]
  pKd: 6.53
[6]; [15]
  pKd: 6.87

## RELNGGAVT
[1]; [15]
  pKd: ≤ 4.27
[2]; [15]
  pKd: 6.67
[3]; [15]
  pKd: 7.66
[4]; [15]
  pKd: 5.04
[5]; [15]
  pKd: 5.14
[6]; [15]
  pKd: 7.36

## SDEVARDLSL
[1]; [15]
  pKd: ≤ 4.36
[2]; [15]
  pKd: 6.45
[3]; [15]
  pKd: 4.97
[4]; [15]
  pKd: 5.25
[5]; [15]
  pKd: 5.41
[6]; [15]
  pKd: 6.58

## TEQFINYCL
[1]; [20]
  pKd: 6.40
[2]; [20]
  pKd: 6.51
[3]; [20]
  pKd: 7.49
[4]; [20]
  pKd: 7.00
[5]; [20]
  pKd: 6.38
[6]; [20]
  pKd: 6.89

## WEILKFLITG
[1]; [15]
  pKd: ≤ 4.38
[2]; [15]
  pKd: 4.72
[3]; [15]
  pKd: 6.27
[4]; [15]
  pKd: 5.07
[5]; [15]
  pKd: 5.53
[6]; [15]
  pKd: 5.93
